Source: the DeepSol protein solubility set

Assay: soluble on expression in E. coli; label from the status in PepcDB or PDB records
With “MHDEQFCVGYNFLEAEDTFREDGLEPVTLAIHGTPEVLQLLGNKPLNWDGPISFGLFVDFHSQKALNYISMLHKCDAAFKRQMTVHFAFRISPSQSECPMIQVLGYQDCATFLQKSKQLLEEIEDSFQIYPINLMRNIARRGAKSDLHLIIDTDMMMSTNFAKMVKPIANRMIDGKNKQVLVVRRFETNENELPMSFGDLEEGIENHKTFQFHHKFFFVGHQIPNLMEWFERSHASNDVVAWEIPYTGNDWEVQIILHRNDPYNVEYFPSRVKDMQSLIYKLCRANYTFNLLSHVFNVHKGIKEDDTMYSKVVTAHTKRQGRLRTLSRYVTEIDRKYPDTMKRCGQFLL” the “soluble on expression in E. coli” value was “not soluble”.
With “GHHHHHHAIAENLYFQSMEYGHHARPDSKRPLDEGSPAAAGLTSKKANEALTRNRELTTVLVKNLPKSYNQNKVYKYFKHCGPIIHVDVADSLKKNFRFARIEFARYDGALAAITKTHKVVGQNEIIVSHLTECTLWMTNFPPSYTQRNIRDLLQDINVVALSIRLPSLRFNTSRRFAYIDVTSKEDARYCVEKLNGLKIEGYTLVTKVSNPLEKSKRTDSATLEGREIMIRNLSTELLDENLLRESFEGFGSIEKINIPAGQKEHSFNNCCAFMVFENKDSAERALQMNRSLLGNREISVSLADKKP” the “soluble on expression in E. coli” value was “soluble”.
In the case of “MSLEKEYEYLVPPDDYLAAGVHIGTQIKTGDMKKFIFKVRQDGLYVLDIRKLDERIRVAAKFLSRYEPSKILLVAARQYAHKPVQMFSKVVGSDYIVGRFIPGTLTNPMLSEYREPEVVFVNDPAIDKQAVSEATAVGIPVVALCDSNNSSADVDLVIPTNNKGRRALAIVYWLLAREIAKIRGQDFTYSIEDFEAELEGGSHHHHHH”, the “soluble on expression in E. coli” value is reported as “soluble”.
With “MIRKDDILKMTEKGISVFRYYLPVDFKVGKNFLNPFYKDTKASCNIYYERKAGVFKMKDFGNEDYSGDCFELVGRLNGLSCKEPKEFVEIMEMINRDLHLGLSAHEEYHVSHSKVPQKSEVVSEEPKAKSVRPYTVVQKPFTAAELAFWGKSGIGENVLKAYRTVSLKKFSSENQERKPFSCMTSVDEPMFGYMGKQHIKVYRPCSQMRFLYAGDFGDNYCFGLEQLPAKGDLLFITGGEKDVMSLAAHGFHAICFNSETAFIPAAVIHRLSFRFKHIILLYDVDSTGLKSSAKREEELKEYGIKRLLLPLAGTKTEKDVSDYFMLGNSREDLIKLFLDYLETLYSETMSALKSCEVDFNNPPPIAQMIVSVNDVPLGTQGNLLCITGGEGTGKSNYVAALIAGAIRPTGTDVDALGVTLHENSRNKAVLFYDTEQSEVQLYKNISNLLRRCGREAMPEWFKAYCLTGMSRKERLLSIIQSLDKYHYQYGGVHLVVIDGIADLIKCANDEAESIAVVEELYRLAGIYKTCIVTVLHFIPNGLKLRGHLGSELQRKAAAILSIEKDSDPAISVVKALKVRDGSPLDVPIMQFSWDKEKAMHVYLGEKPKEEKDKRKEDELVAVAKEVFSRRRFVTYVELAEEIQSILEVKERTAKSYIRFMREKEIILKSSDNQSYYVVGNF” the “soluble on expression in E. coli” value was “not soluble”.
In the case of “MGSDKIHHHHHHLNTRDFEYFLALTQTRNFSQTAEQFAVSQPTITTAIKRLEDSFQAQLIIRDRRHHDIGVTSAGKQLAAHAQVILQQLTLAQQEIAWDQTNKIRFGLPPIIGNYFFPKIAPQLIAAGLMPQLQTVEAGSAALLNQIKQGDLDFALLGASGPLQEPDLTISQIGTAPFVIITSESDPLAQKDKVRFAELAMQKFVTLSEAFVHTRAFTWFQQQSAFIPNVVYQTGDVQLLKQMVVQNVGIGFLTNLAINPDDHLAAVKLTDPKQPVFTISIVRRKDRVLTPAMQHFNQILAAN”, the “soluble on expression in E. coli” value is reported as “not soluble”.
With “DPATVFRLVAAEALTLTGADGTLVAVPADPDASAAEELVIVEVAGAVPAEVEASAIPVQDNAIGQAFRDRAPRRLDVLDGPGLGGPALVLPLRATDTVAGVLVAVQGSGARPFTAEQLEMMTGFADQAAVAWQLASSQRRMSELDILAD” the “soluble on expression in E. coli” value was “soluble”.
With “MGSDKIHHHHHHMSEHLTLPTNKPQVTHFSSGPCAKHPGWSVSNLENACLGRSHRSEDGKAKLSEVIERSKQILGLPADYRLGIVPASDTGAVEMALWSLLGQRPLDILAWESFGQEWVKDVVDELKLPDVRLLKAPYGGLPNLDEVDFSHDVVFLWNGTTSGVRVPNGDWIKDDRQGLTICDATSAVFAMDIPWEKIDVLTYSWQKVLGGEAQHGVIVLSPRAVERLQTYEPAWPIPKIFRLSQKGKLIEGIFKGDTINTPSMLCVEDALDALIWAESVGGLPGLISRSEANLAAIAQWVKQSNWADFLAEKPETRSCTSICLKIVDAAFASLSAEDQGKFAKKLAKLLEKQQVAYDIAPYRAAPPGLRIWGGATVETADIEALLPWLDWAYANVKAEFVPVA” the “soluble on expression in E. coli” value was “not soluble”.
With “MESTAPNAPTEEAPEPTPFVFEFKNNHIKLIELHVYTDSMEILLIGNDGNRYEVEIQEYPGEACIEQISLNRVLVQKKECTSMYPSAPIAIVTLYSILRQPGVKVDCFYYRILNQYFVRDKNNKTEHAKWDERSASLTKMLKAMMRALMKKLEVEVFKIVYNGKEEEVMCLLPYFEPGYLRRICLFNPLYVSPTVIDNIITTEQWKQAKELNTMTGEPVAFPVESHAHFESLRIRIPELKQIDVILLVLKYLNQKTPKDNEIGVQNVSELFDFMWGSMGIPHENDPETIRYTWKSGTYNLYAEVTKNGVRFTSETRQA” the “soluble on expression in E. coli” value was “not soluble”.
In the case of “MLPKANRIPYAMTVHGDTRIDNYYWLRDDTRSQPEVLDYLHQENEYGRKVMTSQQALQDRILKEIIDRIPPREVSAPYVKNGYRYRYIYEPGCEYAIYQRQSALSEEWDVWETLLDANQRAAHSEFYTLGGLAITPDNTIMALAEDYLSRRQYGLRFRNLESGNWYPELLDNVAPEFVWANDSLTLYYVRKHKKTLLPYQVWRHTIGTPSSQDELVYEEKDDTFYVSLHKTTSQHYVVIHLASATTSEVLLLDAELADAEPFSFLPRRKDHEYSLDHYQHKFYLRSNRNGKNFGLYRTRVRNENAWEELIPPREHIMLEGFTLFTDWLVVEERQRGLTSLRQINRKTREVIGIAFDDPAYVTWLAYNPEPETSRLRYGYSSMTTPDTLFELDMDTGERRVLKQTEVPGFDSGCYQSEHLWITARDGVEVPVSLVYHQKYFRKGQNPLLVYGYGSYGSSIDADFSSSRLSLLDRGFVYAIVHVRGGGELGQQWYEDGKFLKKRNTFNDYLDACDALLKLGYGSPSLCYGMGGSAGGMLMGVAINERPELFHGVIAQVPFVDVLTTMLDESIPLTTGEFEEWGNPQDIEYYDYMKSYSPYDNVKAQDYPHLLVTTGLHDSQVQYWEPAKWVAKLRELKTDQRLLLLCTDMDSGHGGKSGRFKSYEGVALEFAFLIGLAQGTLHSA”, the “soluble on expression in E. coli” value is reported as “not soluble”.
In the case of “MGSDKIHHHHHHMTIELTPPPKKNPQKRSTSATRPPEARSRAALGLSAAAAEGRFALQVCAECQAVQYPPRDACAACIGTDLVWQDISPDGHLLAETTIQTSTKLFFRERAPWRMGSVKLTAGPVVLCHVHGDCTRGGPVKILNRLDKSGQAVLIAIPPERTEHMDDDPQLRAMSANPKHRRILITDAWNPNTPALAKALLEAGAATIFVGEAESWRPHPNRDTLAGMENVDILPLDVTDTASVQTLAGEIGGKTDILINNARFMRPGGVLARGDTGFARDEMEVNYLGLMRLAQAFGPGMCARMADGVNSAAAWVNILSAHALSNAPDYGCFSASNAAAYSLSQSLRGEFRSAGLRVMNVFVGPTDDDWYAPLPPPKVLPTGLARSVVDGLRDGLEDVWCGDIAKDMRDRWRRDAKVLEREMTFGSEGA”, the “soluble on expression in E. coli” value is reported as “not soluble”.
With “MGHHHHHHSHAWSGVLEWQEKPKPASVDANTKLTRSLPCQVYVNHGENLKTEQWPQKLIMQLIPQQLLTTLGPLFRNSRMVQFHFTNKDLESLKGLYRIMGNGFAGCVHFPHTAPCEVRVLMLLYSSKKKIFMGLIPYDQSGFVNGIRQVITNHKQVQQQKLEQQQRGMGGQQAPPGLGPILEDQAR” the “soluble on expression in E. coli” value was “soluble”.
For “MSLQTKILIIDGDKDNCQKLKGFLEEKGISIDLAYNCEEAIGKIFSNKYDLIFLEIILSDGDGWTLCKKIRNVTTCPIVYMTYINEDQSILNALNSGGDDYLIKPLNLEILYAKVKAILRRMNSYVNNNENNTKLEEYNRTSGVIKLEDKIIKLTPTENKLLNFFIENPEKTLTTKEIYEHVWMNEYLEDNYSVVVAVNGLRKKIEKDYKNPQKIITIRGAGYYFNKEGHHHHHH”, the “soluble on expression in E. coli” value was “soluble”.
In the case of “MFLPVLDSLPSDYDLLRKTYSRMKLEWSTHDLISHCVQEEERLTNEKKEHDLVAGKVICDKKRKQYDECLEAVLGN”, the “soluble on expression in E. coli” value is reported as “soluble”.
With “SLVTSLKGLWTLRAFGRQPYFETSGGGSGGGSGGGSGGGSGGGEYNLTTTEVVMENVTAFWEEGGTPVLKDINFKIERGQLLAVAGSTGAGKTSLLMMIMGELEPSEGKIKHSGRISFCSQFSWIMPGTIKENIIFGVSYDEYRYRSVIKACQLEEDISKFAEKDNIVLGEGGITLSGGQRARISLARAVYKDADLYLLDSPFGYLDVLTEKEIFESCVCKLMANKTRILVTSKMEHLKKADKILILHEGSSYFYGTFSELQNLQPDFSSKLMG” the “soluble on expression in E. coli” value was “soluble”.
For “MKREKKSFHLHMLSDATGETLISVGRAVASQYTMSQATEHIYPMIRNKTQLQRALDEIQQEPGIVLYTIIDKKIKILLRKRCEKIEIPCIDILHPVLNAFKSYLGIPTNLRVSAQHGLNADYFRRIEALDFTIEHDDGQSPNSLSDADVILVGISRTSKTPTSIYLANRGIKTANVPLIPGINLPDTLLGAKNALIIGLIASVERISHIRQNRNLGDDFSLESYTDRINISEELTYAKRICERFSWPVIDVTRRSIEETAAEIFELLSRFREGK”, the “soluble on expression in E. coli” value was “not soluble”.
With “MWRRYPQVEEKLGWYSRVMRGEEPPKYRIVRTFEVGFDSEDDIRRALTEELWREHERVAGEFRRLFRSLREGGSYEGDIKDARPSLMDVKVELVRRLASPCELCERRCRVERAKSRRGACRLAWEVYVHSAFLHLGEEAPLVPSGTIFYGGCNFTCVFCQNWDVSQWKARDAHIVTPRRLGEIQDRLAEAGARNINHVGGDPVPSLHVIVESMKYASHLKPQLWNSNMYMTLEALDILVDLIDIWLPDLKFGNDRCAMRLSAVPRYWEVTTRNILLAAEHGDMIIRHLVMPGHVECCTKPVLRWIAENLGDRVLVNIMDQYHPDNLVLRMPHKWPEIARRPSRREIEEAWRYAEQLGLDWEPVTK” the “soluble on expression in E. coli” value was “not soluble”.
For “WSYEHLHLTNRIKLLYAPTFRDNELGMAKLHLDIAEMKQALGNEYQLILKLHPSISNDLEKLDDDFVIYVDKETPIETLLPVVDILITDYSSIPFEFALLQKPMIFFTYDLTEYNNARGLSDGFLETIPGPHVFTTTELIEVIQNNTFDLEKVRLFAEKWNKYSDGFSSERFVSFLKE”, the “soluble on expression in E. coli” value was “not soluble”.
In the case of “MSKYNAKKVEYKGIVFDSKVECEYYQYLESNMNGTNYDHIEIQPKFELLPKLDKQRKIEYIADFALYLDDKLIEVIDIKGMPTEVAKLKAKIFRHKYRNIKLNWICKAPKYTGKTWITYEELIKARRERKREMK”, the “soluble on expression in E. coli” value is reported as “not soluble”.
In the case of “MGSDKIHHHHHHMIKLIVSDIDGTLVDSQGQLLPATITGVQAAVARGAQMVLASARSPKGMFGIAQQLGINSTMIAYNGALTATTDVNDRLTVFEEQAVDPKLAQAVQTVVAHDWPAASISIYSNNNWLVATNGPWEQQEATGIGYAPHVTDLGTWLQRMPTPVHKMMIMADPDIIQAIEQRLSRNEFSGLAVYRSKETYLEIVAAGVTKAAALMKLLQDDQVTPAETLAFGDNFNDVAMLQTAGIGVAMANAPQPVKEAANIVTTDNNHNGIQLTLAQYFADVTR”, the “soluble on expression in E. coli” value is reported as “not soluble”.
